According to doi:10.1101/288472:

Biological target: uncleaved full-length membrane-anchored HIV-1_(JR-FL) Env(-) glycoprotein (HIV-1 (JR-FL))
Test: cryo-EM structure

uncleaved full-length membrane-anchored HIV-1_(JR-FL) Env(-) glycoprotein (natural protein)
stoichiometry N: 3
